# According to publication PMC2805770:
# Conditions: phosphorylation at S656
substance,measurement,value
synapsin-I: S656A,localisation_or_trafficking,changes
